Reference: the supplement of paper PMC9112550, “Optimization of the antimicrobial peptide Bac7 by deep mutational scanning” (BMC Biology, 2022)

Tested on: Escherichia coli TOP10
Test: shrunken log2 fold change of peptide-encoding DNA abundance (4.5 h post-induction vs induction); higher = less antimicrobial activity (less host growth inhibition)
Settings: time post-induction: 4.5 h; library: site-saturation at positions 5, 18, 19, 20
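Note: peptides expressed intracellularly from a pBAD plasmid library in pooled LB shake-flask culture, induced with 0.3% L-arabinose, DNA abundance read by NGS, three biological replicates, DESeq2 with apeglm shrinkage.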

Sequence	shrunken log2 fold change
RRIRVRPPRLPRPRPRPMPRPRP	0.24
RRIRSRPPRLPRPRPRPPCTPRP	-0.174
RRIRRRPPRLPRPRPRPKYAPRP	-0.0331
RRIRFRPPRLPRPRPRPWNWPRP	0.0169
RRIRRRPPRLPRPRPRPRQWPRP	0.169
RRIRARPPRLPRPRPRPNRHPRP	0.0991
RRIRWRPPRLPRPRPRPYRIPRP	-0.209
RRIRKRPPRLPRPRPRPAQYPRP	-0.141
RRIRHRPPRLPRPRPRPEMWPRP	0.263
RRIRHRPPRLPRPRPRPKTMPRP	-0.0912
RRIRMRPPRLPRPRPRPLMWPRP	0.268
RRIRIRPPRLPRPRPRPMCTPRP	-0.0274
RRIRTRPPRLPRPRPRPHQSPRP	-0.179
RRIRHRPPRLPRPRPRPIFVPRP	-0.358
RRIRHRPPRLPRPRPRPANQPRP	-0.0712
RRIRHRPPRLPRPRPRPITQPRP	-0.0204
RRIRERPPRLPRPRPRPHPYPRP	-0.103
RRIRARPPRLPRPRPRPKICPRP	0.0997
RRIRKRPPRLPRPRPRPVWVPRP	0.15
RRIRMRPPRLPRPRPRPRANPRP	0.922
RRIRMRPPRLPRPRPRPRIDPRP	0.0569
RRIRHRPPRLPRPRPRPIGQPRP	-0.042
RRIRCRPPRLPRPRPRPTCTPRP	-0.2
RRIRIRPPRLPRPRPRPKNKPRP	-0.68
RRIRSRPPRLPRPRPRPHQFPRP	-0.124

Sequence	shrunken log2 fold change
RRIRGRPPRLPRPRPRPAIYPRP	0.302
RRIRFRPPRLPRPRPRPPRQPRP	0.828
RRIRPRPPRLPRPRPRPARHPRP	0.616
RRIRLRPPRLPRPRPRPRKAPRP	0.022
RRIRWRPPRLPRPRPRPGHIPRP	-0.0732
RRIRTRPPRLPRPRPRPTKSPRP	0.0353
RRIRPRPPRLPRPRPRPNCGPRP	-0.0429
RRIRYRPPRLPRPRPRPPSNPRP	-0.266
RRIRFRPPRLPRPRPRPAWYPRP	-0.103
RRIRMRPPRLPRPRPRPCPFPRP	-0.241
RRIRQRPPRLPRPRPRPPPRPRP	1.25
RRIRMRPPRLPRPRPRPEWKPRP	0.0511
RRIRFRPPRLPRPRPRPPSVPRP	0.08
RRIRTRPPRLPRPRPRPANRPRP	-0.0396
RRIRCRPPRLPRPRPRPKDTPRP	0.382
RRIRIRPPRLPRPRPRPDSGPRP	0.00524
RRIRTRPPRLPRPRPRPLGRPRP	2.94
RRIRVRPPRLPRPRPRPTRWPRP	0.173
RRIRPRPPRLPRPRPRPRIQPRP	0.389
RRIRVRPPRLPRPRPRPGFHPRP	-0.184
RRIRWRPPRLPRPRPRPKYRPRP	0.00658
RRIRERPPRLPRPRPRPVVMPRP	0.116
RRIRTRPPRLPRPRPRPPGAPRP	0.995
RRIRDRPPRLPRPRPRPGDDPRP	0.636
RRIRTRPPRLPRPRPRPNITPRP	-0.664

Sequence	shrunken log2 fold change
RRIRGRPPRLPRPRPRPKFPPRP	0.251
RRIRMRPPRLPRPRPRPDIHPRP	0.335
RRIRCRPPRLPRPRPRPGDWPRP	0.377
RRIRWRPPRLPRPRPRPVFCPRP	0.119
RRIRPRPPRLPRPRPRPKMLPRP	-0.222
RRIRERPPRLPRPRPRPYQCPRP	-0.00884
RRIRQRPPRLPRPRPRPYFPPRP	-0.283
RRIRNRPPRLPRPRPRPHIMPRP	-0.122
RRIRTRPPRLPRPRPRPCGCPRP	0.0633
RRIRMRPPRLPRPRPRPEIHPRP	0.176
RRIRQRPPRLPRPRPRPKEQPRP	-0.0394
RRIRLRPPRLPRPRPRPTMNPRP	-0.362
RRIRHRPPRLPRPRPRPFVWPRP	-0.0616
RRIRRRPPRLPRPRPRPYCSPRP	-0.262
RRIRNRPPRLPRPRPRPLCIPRP	-0.598
RRIRKRPPRLPRPRPRPIRMPRP	-0.0295
RRIRARPPRLPRPRPRPRREPRP	0.631
RRIRRRPPRLPRPRPRPEMQPRP	0.114
RRIRKRPPRLPRPRPRPKEVPRP	0.0319
RRIRWRPPRLPRPRPRPEKIPRP	2.76
RRIRERPPRLPRPRPRPWSTPRP	-0.237
RRIRNRPPRLPRPRPRPHVEPRP	-0.326
RRIRKRPPRLPRPRPRPFIPPRP	-0.543
RRIRDRPPRLPRPRPRPMTYPRP	-0.109
RRIRDRPPRLPRPRPRPAFHPRP	-0.193

Sequence	shrunken log2 fold change
RRIRFRPPRLPRPRPRPVWWPRP	0.148
RRIRIRPPRLPRPRPRPRISPRP	-0.127
RRIRGRPPRLPRPRPRPHKKPRP	-0.108
RRIRIRPPRLPRPRPRPKSPPRP	-0.0939
RRIRCRPPRLPRPRPRPSEEPRP	-0.0443
RRIRMRPPRLPRPRPRPVYLPRP	-0.683
RRIRQRPPRLPRPRPRPVLPPRP	0.0127
RRIRKRPPRLPRPRPRPIVYPRP	-0.0564
RRIRMRPPRLPRPRPRPDKWPRP	0.934
RRIRERPPRLPRPRPRPAAVPRP	0.057
RRIRMRPPRLPRPRPRPRYHPRP	-0.186
RRIRQRPPRLPRPRPRPQNCPRP	0.0179
RRIRLRPPRLPRPRPRPFFLPRP	-0.282
RRIRCRPPRLPRPRPRPVPRPRP	0.534
RRIRARPPRLPRPRPRPHPPPRP	0.706
RRIRDRPPRLPRPRPRPKARPRP	0.132
RRIRFRPPRLPRPRPRPVKQPRP	-0.0303
RRIRWRPPRLPRPRPRPYGVPRP	0.00576
RRIRGRPPRLPRPRPRPEVRPRP	0.919
RRIRGRPPRLPRPRPRPCIYPRP	0.0369
RRIRLRPPRLPRPRPRPYEPPRP	-0.0278
RRIRLRPPRLPRPRPRPGYDPRP	-0.233
RRIRLRPPRLPRPRPRPQVWPRP	0.000105
RRIRNRPPRLPRPRPRPEHGPRP	-0.0132
RRIRRRPPRLPRPRPRPNEMPRP	0.245

Sequence	shrunken log2 fold change
RRIRPRPPRLPRPRPRPVREPRP	0.605
RRIRCRPPRLPRPRPRPLWRPRP	0.397
RRIRARPPRLPRPRPRPPVSPRP	0.554
RRIRARPPRLPRPRPRPIQKPRP	0.00369
RRIRTRPPRLPRPRPRPQHWPRP	0.08
RRIRSRPPRLPRPRPRPVTMPRP	-0.312
RRIRMRPPRLPRPRPRPDNYPRP	-0.0552
RRIRKRPPRLPRPRPRPASFPRP	0.559
RRIRYRPPRLPRPRPRPHRVPRP	-0.248
RRIRCRPPRLPRPRPRPWLYPRP	-0.246
RRIRARPPRLPRPRPRPIGTPRP	0.0903
RRIRERPPRLPRPRPRPEGMPRP	0.046
RRIRRRPPRLPRPRPRPNEAPRP	0.271
RRIRGRPPRLPRPRPRPYWDPRP	-0.26
RRIRFRPPRLPRPRPRPAETPRP	0.0238
RRIRGRPPRLPRPRPRPDQAPRP	0.925
RRIRNRPPRLPRPRPRPADFPRP	0.0143
RRIRPRPPRLPRPRPRPDQQPRP	-0.0644
RRIRWRPPRLPRPRPRPHKNPRP	-0.13
RRIRWRPPRLPRPRPRPVPDPRP	-0.101
RRIRERPPRLPRPRPRPWYDPRP	-0.392
RRIRFRPPRLPRPRPRPAKIPRP	0.117
RRIRGRPPRLPRPRPRPMDTPRP	1.12
RRIRGRPPRLPRPRPRPYISPRP	-0.325
RRIRSRPPRLPRPRPRPNTEPRP	0.121

Sequence	shrunken log2 fold change
RRIRNRPPRLPRPRPRPEIYPRP	-0.00989
RRIRQRPPRLPRPRPRPTMPPRP	0.2
RRIRRRPPRLPRPRPRPDSKPRP	-0.0649
RRIRYRPPRLPRPRPRPRGYPRP	-0.365
RRIRYRPPRLPRPRPRPQKFPRP	-0.0224
RRIRERPPRLPRPRPRPIVYPRP	0.0176
RRIRRRPPRLPRPRPRPLEGPRP	0.0703
RRIRMRPPRLPRPRPRPPMSPRP	-0.114
RRIRERPPRLPRPRPRPKWLPRP	0.226
RRIRNRPPRLPRPRPRPLIQPRP	-0.327
RRIRPRPPRLPRPRPRPRGRPRP	0.713
RRIRCRPPRLPRPRPRPIKLPRP	-0.63
RRIRHRPPRLPRPRPRPSILPRP	-0.464
RRIRCRPPRLPRPRPRPWDTPRP	-0.282
RRIRMRPPRLPRPRPRPTACPRP	1.02
RRIRVRPPRLPRPRPRPTFYPRP	-0.145
RRIRIRPPRLPRPRPRPRPIPRP	0.0745
RRIRDRPPRLPRPRPRPVEHPRP	0.115
RRIRGRPPRLPRPRPRPVTGPRP	0.21
RRIRWRPPRLPRPRPRPWKCPRP	-0.01
RRIRCRPPRLPRPRPRPYYCPRP	-1.03
RRIRNRPPRLPRPRPRPMGRPRP	-0.117
RRIRPRPPRLPRPRPRPFTVPRP	0.0237
RRIRHRPPRLPRPRPRPLYRPRP	-0.343
RRIRFRPPRLPRPRPRPICRPRP	-0.0837
